Data: paper PMC3353271

Target: S. cerevisiae enolase (S. cerevisiae (endogenous in strain R11258)) (UniProt P00925)
Assay: SEC

Substance: S. cerevisiae enolase (from UniProt P00925 1-437) (enzyme)
- stoichiometry N: 2
